Assays:
PMNs [1] = settings: Kao et al., 1994; cited from earlier work
MPs = settings: Kao et al., 1994; cited from earlier work
[2] = system: chick chorioallantoic membrane (CAM); test: In vivo angiogenesis assay in chick chorioallantoic membrane (CAM); settings: 250 ng TyrRS molecule or 25 ng VEGF165 on filter disk, 72 hours
Procedure: In vivo angiogenesis assays were conducted in chick chorioallantoic membrane (CAM) (Nicolaou et al., 1998, Bioorg. Med. Chem. 6:1185-208). Ten-day-old chick embryos were purchased from Mcintyre Poultry (Lakeside, Calif.) and were incubated at 37° C. and 70% humidity. A small hole was made with a small crafts drill (Dremel, Emerson Electric, Racine, Wis.) directly over the air sac at the end of the egg. The embryos were candled to determine a location to drill a second hole directly over embryonic blood vessels. […] A window was cut in the eggshell over the dropped CAM, exposing the CAM to direct access for experimental manipulation. Cortisone acetate-treated 5 mm filter disks were soaked with a particular protein sample (25 ng of VEGF165 or 250 ng of a given TyrRS molecule) and the filter disks added directly to the CAMs, which were relatively devoid of preexisting blood vessels. The windows were sealed with sterile tape and incubated at 37° C. […] After 72 hours, the CAM tissue associated with the filter disk was harvested and quantified using a stereomicroscope. Angiogenesis was assessed as the number of visible blood vessel branch points within the defined area of the filter disks. Each determination shown in FIG. 17 represents the mean from 5-8 embryos.

[3] = system: human umbilical vein endothelial cells (HUVECs); test: HUVEC migration assay (modified Boyden chamber); type: cell-based; settings: 50 nM TyrRS molecule or 0.5 nM VEGF165, 6 hours
Procedure: In contrast, α-chemokines lacking the ELR motif act as angiostatic factors (id.). In order to evaluate the angiogenic activity of TyrRS, which contains the ELR motif, human full-length TyrRS and human mini TyrRS were first examined for their ability to induce endothelial cell migration. Such angiogenic assays were performed using human umbilical vein endothelial cells (HUVECs) (Clonetics, Walkersville, Md.). Cells were maintained in EGM-2® BULLETKIT® medium (Clonetics) in an atmosphere of 6% CO2 at 37° C. according to the supplier's instructions.
Cell migration assays were performed using the modified Boyden chamber (6.5 mm Transwells) with polycarbonate membranes (8.0 μm pore size) (Costar Corp., Cambridge, Mass.) (Masood et al., 1999, Blood 93:1038-44). Wells were coated overnight with 25 μg/mL human fibronectin (Biosource International, Camarillo, Calif.) in PBS and then allowed to air-dry. HUVECs were suspended in Dulbecco's modified Eagle's medium (DMEM) (Gibco-BRL, Gaithersburg, Md.) containing 0.1% BSA (Sigma) and 2×10^5 cells per well were added to the upper chamber. The chemotactic stimulus (50 nM of a given TyrRS molecule or 0.5 nM of human vascular endothelial growth factor-165 (VEGF165) (Biosource International, Camarillo, Calif.)) was placed in the lower chamber, and the cells were allowed to migrate for 6 hours at 37° C. in a 6% CO2 incubator. After incubation, non-migrant cells were removed from the upper face of the Transwell membrane with a cotton swab and migrant cells, those attached to the lower face, were fixed in methanol and visualized with the HEMACOLOR® stain set (EM Diagnostic Systems, Gibbstown, N.J.). Migrating cells were counted in high-power fields (HPFs). HUVECs were suspended in media with the inhibitor for 30 minutes before placement in the chamber. Each determination shown in FIG. 16 represents the average of nine HPF measurements.

PMNs [4] = test: 125I-human mini TyrRS binding and competition assay on PMNs; settings: 10 nM 125I-mini TyrRS, 200-fold molar excess of unlabeled ligand, on ice 2 hours
Procedure: The interaction of human mini TyrRS and PMNs was examined in binding studies using radioiodinated TyrRS molecules (Moser et al., 1993, J. Biol. Chem. 268:7125-28). Custom radioiodination of mini TyrRS with was performed by Research & Diagnostic Antibody (Richmond, Calif.). In the binding assays, 2×10^6 PMNs were first suspended in 120 μl of RPMI-1640 medium containing 20 mM Hepes (pH 7.4) and 10 mg/ml bovine serum albumin. […] Following incubation, cells were separated from unbound radioactivity by centrifugation at approximately 8000×g for 2 minutes through 500 μL, of a 10% sucrose/phosphate-buffered saline (PBS) cushion. The supernatant was aspirated, and the cell sediment was resuspended using EcoLite (ICN Biomedicals, Irvine, Calif.) and analyzed in a scintillation counter.
Following incubation, cells were separated from unbound radioactivity as described herein.

PMNs [5] = test: PMN chemotaxis assay (ChemoTX microchemotaxis chamber); type: cell-based, human; settings: sample proteins 1 nM, 45 min
Procedure: Cells for the various cytokine assays described were prepared from acid citrate dextrose-treated blood of normal healthy volunteers. Human PMNs were isolated from the blood by centrifugation (700×g) over Histopaque 1077 and 1119 (Sigma). […] This procedure was repeated twice. Human MPs were isolated by centrifugation on Histopaque 1077 (Sigma). The mononuclear fraction was obtained, washed twice in Hanks' balanced salt solution, resuspended in RPMI-1640 medium (Sigma) containing 10% heat-inactivated fetal bovine serum (Sigma), plated in tissue culture flasks, and incubated in a 6% CO2 incubator at 37° C. for 1-2 hours (Kumagai et al., 1979, J. Immunol. Methods 29:17-25). Nonadherent cells were removed by washing the flasks three times with Hanks' balanced salt solution, and adherent cells were harvested by incubation with calcium-magnesium free phosphate-buffered saline containing 2 mM EDTA for 15 minutes at 4° C., followed by extensive washing.
PMN chemotaxis assays were performed in a ChemoTX microchemotaxis chamber (described herein). Sample proteins (1 nM) were added to the lower compartment of chemotaxis chambers, and 10^4 PMNs were added to the upper compartment. Chambers were incubated for 45 min, and migrating cells were counted in HPFs. Each determination shown in FIG. 2 represents the average of nine HPF measurements.

Molecule | PMN migration induced by synthetic peptide (literature) (PMNs [1]) | MP migration induced by synthetic peptide (literature) (MPs) | in vivo angiogenesis in chick CAM (blood vessel branch points) [2] | HUVEC chemotaxis [3] | inhibition of 125I-mini TyrRS binding to PMNs by unlabeled ligand (PMNs [4]) | PMN chemotaxis (PMN migration) (PMNs [5])
R-I-G-R-I-I-T (RIGRIIT; listed as Homo sapiens) [synthetic peptide of seven residues near the amino-terminus of human mature EMAP II, Cys replaced by Arg] | can induce PMN or MP migration | can induce PMN or MP migration |  |  |  | 
mini TyrRS mutant: mini TyrRS in which the ELR motif was mutated to ELQ (Glu-Leu-Gln) (protein, His6 tag; Human mini TyrRS mutant in pET20B) MGDAPSPEEKLHLITRNLQEVLGEEKLKEILKERELKIYWGTATTGKPHVAYFVPMSKIADFLKAGCEVTILFADLHAYLDNMKAPWELLELQVSYYENVIKAMLESIGVPLEKLKFIKGTDYQLSKEYTLDVYRLSSVVTQHDSKKAGAEVVKQVEHPLLSGLLYPGLQALDEEYLKVDAQFGGIDQRKIFTFAEKYLPALGYSKRVHLMNPMVPGLTGSKMSSSEEESKIDLLDRKEDVKKKLKKAFCEPGNVENNGVLSFIKHVLFPLKSEFVILRDEKWGGNKTYTAYVDLEKDFAAEVVHPGDLKNSVEVALNKLLDPIREKFNTPALKKLASAAYPDPSKQKPMAKGPAKNSEPEEVILEHHHHHH |  |  | failed to induce in vivo angiogenesis | no chemotaxis was observed | did not inhibit the binding | did not induce PMN migration

— US9205136B2, “Human aminoacyl-tRNA synthetase polypeptides useful for the regulation of angiogenesis” (THE SCRIPPS RESEARCH INSTITUTE, priority 2000, dated 2015)
